The values that follow come from patent US20240400708A1.

The target of test [1] is feline FcRn complex (FcRn-α subunit and β-microglobulin), biotin labeled (feline). In words: SPR, pH 6. For orientation: Surface plasmon resonance follows binding to a sensor surface in real time, without labels.
Test [2] shares this target. In words: SPR, pH 7.4.
The target in test [3] is feline FcRn complex (FcRn-α subunit and β-microglobulin) (feline). In words: SPR (Biacore), FcRn on SA chip, pH 6.

Changes are numbered by the printed parent chain. Names and notes keep the numbering of the source.

As a reminder, the Kd is the concentration at which binding is half-saturated. feline IgG1a T403R (antibody): the values for the Kd in test [1] and in test [2] were 6.22 nM and 840 nM, respectively.
For “feline IgG1a S252H/S428M/D312P (ID No. 215) (antibody)”, in that order: 3.24 nM and 41.2 nM.
For “feline IgG1a S434Y/S434F (as printed) (antibody)”, in that order: 3.61 nM and 94.8 nM.

B1: feline IgG1a S434G (antibody, part only; not given: Variable domains, not shown: another chain or arm of the molecule)
constant: ASTTAPSVFPLAPSCGTTSGATVALACLVLGYFPEPVTVSWNSGALTSGVHTFPAVLQASGLYSLSSMVTVPSSRWLSDTFTCNVAHPPSNTKVDKTVRKTDHPPGPKPCDCPKCPPPEMLGGPSIFIFPPKPKDTLSISRTPEVTCLVVDLGPDDSDVQITWFVDNTQVYTAKTSPREEQFNSTYRVVSVLPILHQDWLKGKEFKCKVNSKSLPSPIERTISKAKGQPHEPQVYVLPPAQEELSRNKVSVTCLIKSFHPPDIAVEWEITGQPEPENNYRTTPPQLDSDGTYFVYSKLSVDRSHWQRGNTYTCSVSHEALHGHHTQKSLTQSPGK
Take B1: the Kd in test [1] was 9.58 nM; in test [2], 21.6 nM.

B2: feline IgG1a S252H (antibody, part only; not given: Variable domains, not shown: another chain or arm of the molecule)
constant: B1 constant with S138H, G322S
For B2, the equilibrium dissociation constant (Kd) in test [1] was 49.9 nM; in test [2], 8410 nM.

B3: feline IgG1a mutant ID No. 315: Q311Y, D312P, L314K (antibody, part only; not given: Variable domains, not shown: another chain or arm of the molecule)
constant: B1 constant with Q197Y, D198P, L200K, G322S
In the case of B3, the Kd in test [3] turned out to be 11.4 nM.

B4: feline IgG1a D312P/S434Y (antibody, part only; not given: Variable domains, not shown: another chain or arm of the molecule)
constant: B1 constant with D198P, G322Y
In the case of B4, the Kd in test [1] came out at 22.6 nM; in test [2] it was 1800 nM.

B5: feline IgG1a S254P (antibody, part only; not given: Variable domains, not shown: another chain or arm of the molecule)
constant: B1 constant with S140P, G322S
For B5, the Kd in test [1] is 27.3 nM; in test [2], 5690 nM.

B6: feline IgG1a mutant ID No. 320: S428Y, D312P, S434P (antibody, part only; not given: Variable domains, not shown: another chain or arm of the molecule)
constant: B1 constant with D198P, S316Y, G322P
In test [3], B6 displayed a dissociation constant (Kd) of 22.7 nM.

B7: feline IgG1a mutant ID No. 330: S428Y, D312P, S434Y, Q311K, L314K (antibody, part only; not given: Variable domains, not shown: another chain or arm of the molecule; small tags and cut ends)
constant: B1 constant with Q197K, D198P, L200K, S316Y, G322Y
B7 gave a Kd in test [3] of 0.00906 nM.

B8: feline IgG1a S252F (antibody, part only; not given: Variable domains, not shown: another chain or arm of the molecule)
constant: B1 constant with S138F, G322S
For B8, the figures for the Kd in test [1] and in test [2] were 123 nM and 5960 nM, respectively.

B9: feline IgG1a S254C (antibody, part only; not given: Variable domains, not shown: another chain or arm of the molecule)
constant: B1 constant with S140C, G322S
Consider B9, for which the Kd in test [1] was determined as 44 nM; in test [2] it was 2160 nM.

B10: feline IgG1a S252F/S434W (antibody, part only; not given: Variable domains, not shown: another chain or arm of the molecule)
constant: B1 constant with S138F, G322W
With B10, the Kd amounted to 6.15 nM in test [1] and 1370 nM in test [2].

B11: feline IgG1a S254I (antibody, part only; not given: Variable domains, not shown: another chain or arm of the molecule)
constant: B1 constant with S140I, G322S
With B11, the Kd in test [1] came out at 12.4 nM; in test [2], 16100 nM.

B12: feline IgG1a mutant ID No. 309: P247V, T250Q (antibody, part only; not given: Variable domains, not shown: another chain or arm of the molecule; small tags and cut ends)
constant: B1 constant with P133V, T136Q, G322S
In test [3], B12 returned a Kd of 9.6 nM.

B13: feline IgG1a S252Y/S434H (antibody, part only; not given: Variable domains, not shown: another chain or arm of the molecule)
constant: B1 constant with S138Y, G322H
In the case of B13, the results for the Kd in test [1] and in test [2] were 0.774 nM and 11.7 nM, respectively.

B14: feline IgG1a L314K/S434Y (antibody, part only; not given: Variable domains, not shown: another chain or arm of the molecule)
constant: B1 constant with L200K, G322Y
In the case of B14, the Kd is 244 nM in test [1] and 7430 nM in test [2].

B15: feline IgG1a S252Y (antibody, part only; not given: Variable domains, not shown: another chain or arm of the molecule)
constant: B1 constant with S138Y, G322S
Consider B15, for which the values for the dissociation constant (Kd) in test [1] and in test [2] were 893 nM and 12700 nM, respectively.

B16: feline IgG1a mutant ID No. 313: Q311M, D312P, L314K (antibody, part only; not given: Variable domains, not shown: another chain or arm of the molecule)
constant: B1 constant with Q197M, D198P, L200K, G322S
In turn, B16 gave a Kd in test [3] of 18.9 nM.

B17: feline IgG1a mutant ID No. 322: S428Y, D312P, S434Y, D399M, D401R (antibody, part only; not given: variable domains and light chain, not shown: another chain or arm of the molecule)
constant: B1 constant with D198P, D287M, D289R, S316Y, G322Y
In the case of B17, the Kd in test [3] was found to be 0.00402 nM.

B18: feline IgG1a H436Y (antibody, part only; not given: Variable domains, not shown: another chain or arm of the molecule)
constant: B1 constant with G322S, H324Y
Take B18: the values for the Kd in test [1] and in test [2] were 10.2 nM and 43.4 nM, respectively.

B19: feline IgG1a mutant ID No. 311: Q311H, D312P, L314K (antibody, part only; not given: Variable domains, not shown: another chain or arm of the molecule; small tags and cut ends)
constant: B1 constant with Q197H, D198P, L200K, G322S
In turn, B19 gave a Kd in test [3] of 1.44 nM.

B20: feline IgG1a Q311W/D312P (antibody, part only; not given: Variable domains, not shown: another chain or arm of the molecule)
constant: B1 constant with Q197W, D198P, G322S
As for B20, the Kd in test [1] stood at 2.76 nM; in test [2], 50.3 nM.

B21: feline IgG1a S252Y/Q311W/D312P (antibody, part only; not given: Variable domains, not shown: another chain or arm of the molecule)
constant: B1 constant with S138Y, Q197W, D198P, G322S
For B21, the figures for the dissociation constant (Kd) in test [1] and in test [2] were 35.2 nM and 1130 nM, respectively.

B22: feline IgG1a S434R (antibody, part only; not given: Variable domains, not shown: another chain or arm of the molecule)
constant: B1 constant with G322R
As to B22, the Kd in test [1] is 1.19 nM; in test [2], 16.3 nM.

B23: feline IgG1a Q311W (antibody, part only; not given: Variable domains, not shown: another chain or arm of the molecule)
constant: B1 constant with Q197W, G322S
With B23, the figures for the Kd in test [1] and in test [2] were 4.18 nM and 207 nM, respectively.

B24: feline IgG1a Q311W/D312P/S434Y (antibody, part only; not given: Variable domains, not shown: another chain or arm of the molecule)
constant: B1 constant with Q197W, D198P, G322Y
Turning to B24, the Kd in test [1] was 1.53 nM; in test [2], 37.7 nM.

B25: feline IgG1a S252F/S434Y (antibody, part only; not given: Variable domains, not shown: another chain or arm of the molecule)
constant: B1 constant with S138F, G322Y
Regarding B25, the Kd in test [1] was found to be 9.28 nM; in test [2] it was 1470 nM.

B26: feline IgG1a Q311Y (antibody, part only; not given: Variable domains, not shown: another chain or arm of the molecule)
constant: B1 constant with Q197Y, G322S
As to B26, the results for the Kd in test [1] and in test [2] were 5.53 nM and 41.4 nM, respectively.

B27: feline IgG1a S252R/S434H (antibody, part only; not given: Variable domains, not shown: another chain or arm of the molecule)
constant: B1 constant with S138R, G322H
Take B27: the Kd stood at 2.21 nM in test [1] and 41.3 nM in test [2].

B28: feline IgG1a D312P (antibody, part only; not given: Variable domains, not shown: another chain or arm of the molecule)
constant: B1 constant with D198P, G322S
On to B28, for which the Kd in test [1] stood at 3.96 nM; in test [2], 2960 nM.

B29: feline IgG1a A431K (antibody, part only; not given: variable domains and light chain, not shown: another chain or arm of the molecule)
constant: B1 constant with A319K, G322S
Take B29: the dissociation constant Kd was 10.1 nM in test [1] and 9.39 nM in test [2].

B30: feline IgG1a mutant ID No. 312: Q311K, D312P, L314K (antibody, part only; not given: Variable domains, not shown: another chain or arm of the molecule)
constant: B1 constant with Q197K, D198P, L200K, G322S
Molecule B30 returned a Kd in test [3] of 6.07 nM.

B31: feline IgG1a L314K (antibody, part only; not given: variable domains and light chain, not shown: another chain or arm of the molecule)
constant: B1 constant with L200K, G322S
Take B31: the figures for the Kd in test [1] and in test [2] were 8.43 nM and 41.5 nM, respectively.

B32: feline IgG1a S254V (antibody, part only; not given: Variable domains, not shown: another chain or arm of the molecule)
constant: B1 constant with S140V, G322S
Turning to B32, the Kd in test [1] stood at 9.91 nM; in test [2], 49800 nM.

B33: feline IgG1a S252R (antibody, part only; not given: Variable domains, not shown: another chain or arm of the molecule)
constant: B1 constant with S138R, G322S
For the molecule B33, the dissociation constant Kd in test [1] is 1.48 nM; in test [2], 5.06 nM.

B34: feline IgG1a S252F/S434H (antibody, part only; not given: Variable domains, not shown: another chain or arm of the molecule)
constant: B1 constant with S138F, G322H
Consider B34, for which the equilibrium dissociation constant (Kd) in test [1] is 1.69 nM; in test [2], 18.1 nM.

B35: feline IgG1a S428Y (antibody, part only; not given: Variable domains, not shown: another chain or arm of the molecule)
constant: B1 constant with S316Y, G322S
As for B35, the Kd in test [1] is 16.4 nM; in test [2], 18700 nM.

B36: feline IgG1a S252Y/Q311W (antibody, part only; not given: Variable domains, not shown: another chain or arm of the molecule)
constant: B1 constant with S138Y, Q197W, G322S
For the molecule B36, the values for the Kd in test [1] and in test [2] were 26.9 nM and 953 nM, respectively.

B37: feline IgG1a S252F/S434F (antibody, part only; not given: Variable domains, not shown: another chain or arm of the molecule)
constant: B1 constant with S138F, G322F
As to B37, the Kd in test [1] was determined as 173 nM; in test [2], 2350 nM.

B38: feline IgG1a T256F (antibody, part only; not given: Variable domains, not shown: another chain or arm of the molecule)
constant: B1 constant with T142F, G322S
With B38, the Kd in test [1] came to 50.3 nM; in test [2], 427 nM.

B39: feline IgG1a S252Y/D312P/L314K (antibody, part only; not given: Variable domains, not shown: another chain or arm of the molecule)
constant: B1 constant with S138Y, D198P, L200K, G322S
Take B39: the Kd in test [1] turned out to be 26.7 nM; in test [2] it was 1820 nM.

B40: feline IgG1a S428L/S434Y (antibody, part only; not given: Variable domains, not shown: another chain or arm of the molecule; small tags and cut ends)
constant: B1 constant with S316L, G322Y
Turning to B40, the dissociation constant (Kd) in test [1] stood at 2.75 nM; in test [2], 46.9 nM.

B41: feline IgG1a S252R/S428L/S434F (antibody, part only; not given: Variable domains, not shown: another chain or arm of the molecule)
constant: B1 constant with S138R, S316L, G322F
Regarding B41, the Kd in test [1] was 6.43 nM; in test [2] it was 774 nM.

B42: feline IgG1a mutant ID No. 314: Q311R, D312P, L314K (antibody, part only; not given: Variable domains, not shown: another chain or arm of the molecule)
constant: B1 constant with Q197R, D198P, L200K, G322S
In turn, B42 returned a Kd in test [3] of 2130 nM.

B43: feline IgG1a Q311W/L314K (antibody, part only; not given: Variable domains, not shown: another chain or arm of the molecule)
constant: B1 constant with Q197W, L200K, G322S
As for B43, the results for the Kd in test [1] and in test [2] were 3.47 nM and 55.8 nM, respectively.
